# In the RNAGym collection of RNA variant scans (doi:10.1073/pnas.2313332121):
# B1: TPR t1 (parent)
# chain: GACCAAUCUGCCCUCAGAGCUCGAGAACAUCUUCGGAUGCAGAGGAGGCAGGCUUCGGUGGCGCGAUAGCGCCAACGUCCUCAACCUCCAAUGCAUCCCACCACAUGAUGAUGCCUGAAGAGCCUUGGUUUUUUG
# Variants of: B1
# Assay: polymerase ribozyme fitness, log enrichment relative to wild type (log ratio); higher = more active; in vitro selection for triplet polymerase activity
# Method in brief: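 Frozen incubation at −7 °C formed the core of a single, triplicate in vitro selection round applied to PCR-built, transcribed mutant libraries of each subunit of a heterodimeric triplet polymerase ribozyme. Extended constructs were gel-excised, captured with streptavidin beads and amplified by RT-PCR, and input and output libraries were Illumina-sequenced with a filter of ≥10 input reads and ≥1 read per output. Fitness is the logarithm of genotype enrichment relative to wild-type enrichment, with inverse-variance-weighted replicate averaging, and the logarithm is base 2.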
row,Variant,polymerase ribozyme fitness (log ratio)
1,C40G G69C C72U C89A,-3.57
2,A41C G61U,-0.204
3,A41C U55G U59C G93C,-2.33
4,C40U G63C A121C,0.618
5,A41G G61C C94A A111U,-5.2
6,A41G C53U,-0.653
7,C40U G57U G120C,0.687
8,A41G C56U C72G G113A G128U,-5.35
9,A41C A90G,-0.105
10,C40G G48C G93C,0.0171
11,C40G G48U U92A,-4.05
12,C40G U55G C62U U78G,-2.04
13,A41G G52A G61C C85U C124A U126C,-5.73
14,C40U G57U,-0.292
15,C40U A84C,-0.985
16,C40U C53U C72A C97U,-0.251
17,A41G A83U C99U C115A U131G,-4.22
18,A41C G69C C114A,-3.84
19,C40G G47U C49A,-3.74
20,A41G A46C C88U C104U,-0.948
21,A41G G48A C80U A95G C124A,0.0211
22,C40U G45U,-2.01
23,C40U G45A,-1.41
24,A41G U55A G58C G120U,-0.997

row,Variant,polymerase ribozyme fitness (log ratio)
1,C40U A41G G44A U59G G60U U112A,0.462
2,C40U G42A C56U C80U G120U U132C,-3.64
3,C40U C62G A111G,-2.32
4,C40U U55C C70A U96A,-3.02
5,A41G G48U A121U,1.04
6,A41G U55G A74G,0.0435
7,C40U G48U G52A A121U,-0.327
8,A41C C82A A111C,-2.14
9,A41C C80U,-1.79
10,A41G A105U,-3.3
11,A41C C64G,-6.49
12,A41G G117C,-4.18
13,A41G C49G U55A A111C,-1.63
14,C40U C82U A84G G107U,-6.74
15,C40G G51U U87A A90G G117U,-5.66
16,A41C G61A G127A,-1.68
17,A41G A103C,-5.33
18,C40G C114U C123U,-4.09
19,C40G G44C A74U,-1.5
20,A41C C98U G117A,-5.3
21,C40U C70U,-0.997
22,A41C U59G C79U C124A,0.881
23,A41C C98U,-2.48
24,C40U A43U,-1.09

row,Variant,polymerase ribozyme fitness (log ratio)
1,A41G C99U,-3.39
2,C40U G44A C62U,-1.32
3,A41G C101A C115G,-2.97
4,C40G G135U,-1.71
5,A41U A46U G63U,-3.33
6,A41G U55A C56U C72G A118U,-0.698
7,C40U C62U C73G C85G,-5.15
8,A41C C114A,-2.37
9,C40U C56A C82G C97U C115U U132C,-4.39
10,C40U G63C C80U,-1.53
11,C40U G93A U96G,-0.786
12,C40U A74G,-0.128
13,C40U A74C G77U C94U C114G,-2.59
14,C40G G45A U78C G113U G135A,-4.25
15,A41G G69U A74U U81A,-1.11
16,A41U A43U,-1.37
17,C40U C56A A91G,-2.75
18,A41G C49A G113C C124U,-3.06
19,A41U A83U U87G U92A,-0.357
20,A41C U92A,-2.21
21,C40U A41C G48U C56U G58C G63U,-3.13
22,A41G C56A G63U C70U,-2.43
23,C40U C62U C85G,-2.44
24,C40U G61A,-0.522

row,Variant,polymerase ribozyme fitness (log ratio)
1,C40U G61C,-2.59
2,C40U C73U G113A,-1.98
3,C40G G107A,-6.63
4,A41C C89A G93U C101U G113U,-6.26
5,A41G C72A C98U C124U,0.986
6,C40U C49A C73U C98G,-6.1
7,C40G G42A U59A A95G C123G,-2.1
8,C40U G48U C79A C124U,-3.57
9,A41C G57C A90G C97A,-4.54
10,A41C G58A,-0.278
11,C40G G47U G71U,-6.34
12,C40U C53U A66G,-1.67
13,C40U U55C,-0.711
14,C40U A43G U130A,-3.26
15,A41C U78C C86A U106A,-1.09
16,C40U G113U U129C,-3.58
17,A41G C53G A84C U126A,-2.86
18,C40U C56G C88G G93A,-2.89
19,A41G G45U C62A U78A U112G,-5.01
20,A41C C73G,-1.33
21,C40U C53A C73A C104U,0.971
22,C40U A46G G61U G110A U116A,-3.75
23,A41C C73A C86G C104A,-4.53
24,C40U G45U U55A C73U,-1.76

row,Variant,polymerase ribozyme fitness (log ratio)
1,C40U G47C C53U,-3.49
2,A41U A46U C72U A83C U109A,-7.09
3,A41G A46U G77U,-3.75
4,C40U A95C,-1.45
5,A41U A46C A91G U112A,-3.27
6,A41G A121U,1.72
7,C40G G57C C79U G93U G117C C123A,-4.88
8,C40G G48U A105U,-3.14
9,A41C A46U C70U,-3.44
10,C40U G110U,-2.35
11,C40U A118G,-1.24
12,C40U U131A,-0.601
13,C40U U112A U116C,-1.95
14,C40U C73A C101U,-0.192
15,C40U G61C C72U C88A,-1.95
16,C40U G61U G71A C99U G120A,-6.74
17,A41C G52C C73G,-2.96
18,C40U C97A,-5.23
19,C40U C56G A84C C88A U109A,-7.02
20,A41G C56G G69C U133G,-5.1
21,C40U C53U U78C U92A G93A A111C,-4.45
22,A41U A84G G122A,-3.29
23,A41G U87G U109A C115U,-6.39
24,A41C G93U,-1.92

row,Variant,polymerase ribozyme fitness (log ratio)
1,A41C G45U G69U C124A U126G,-1.04
2,A41U A46U C115A G120U C123G,-2.25
3,C40U C88A U106C,-1.06
4,C40U U67C G71U C89U U109A G117C A121U G128A U134A,-5.54
5,A41C U78G,-1.18
6,C40G G117U,-3.26
7,C40G G71U G117A,-2.71
8,C40U G69C G93A U96G,-2.24
9,C40U C85A G113C,-3.42
10,C40U G63C,-0.94
11,A41G G71U,-0.756
12,C40U G69C,-1.61
13,C40U A46U A100U,-3.37
14,A41C G63A G69U G93C C101A,-4.78
15,C40G G128A,-3.61
16,C40U C72U U116G G120C G128U,-4.53
17,C40U C53G A75G G117A,-2.56
18,A41C C86A U106A,-1.11
19,C40U C70G C98U A119U,-3.66
20,A41C C56U C114A A121G,-1.11
21,A41G U78C C82A,-0.297
22,C40G G71U,-1.23
23,C40G G45A,-2.11
24,C40U G57C G58A U116G,-3.95

row,Variant,polymerase ribozyme fitness (log ratio)
1,C40U G63C A74C U131A,-2.75
2,C40U G69A C99A C114G,-8.02
3,A41G G71U A91U,-2.66
4,C40U C88A C101A A121U,-0.199
5,A41G C86A U87C G113U,-4.97
6,C40U C53U A121G,1.58
7,C40G U92A U109A U116C,-5.03
8,A41C G44A G58C G93C,-1.87
9,A41C C124G,0.528
10,A41G G52A U59C U125G,-1.61
11,C40U G71C,-1.58
12,C40U A74G C88U G120A A121C,-0.0609
13,A41C G52A A74U C88U,-2.04
14,C40U G52A C53U C124A,0.594
15,A41U A46U C89G A121C,-7.24
16,A41C C56G,-4.05
17,A41C C56U,-0.143
18,C40U C79A C101U,-2.1
19,C40U A50U G52U U87A C102A U106A A118G,-7.38
20,C40U C85A U129G U132C,-5.2
21,C40U G57A C85A U112A G122C C123A,-1.77
22,A41C U55G A66C G93C,-4.9
23,C40G G48A C64U C104A U109A C114A U130A,-5.98
